Source: patent US20240189230A1, “PALM FOR THE TREATMENT OF CHEMOTHERAPY-INDUCED PERIPHERAL NEUROPATHY INCIDENTAL TO THE TREATMENT OF CANCER” (Peptinovo Biopharma Inc., priority 2019, published 2024)
Non-standard residues stand in square brackets, D forms with d. No end group written: not given here. Aib = CC(C)(N)C(=O)O

Legend:
[1] = tested on: SR-BI; test: DiI uptake from DiI-labeled PALM or HDL by BHK(SR-BI) cells, SR-BI induced or un-induced; format: cell-based, human; conditions: for Un-induced DiI Uptake: un-induced BHK(SR-BI) cells
Protocol: A 40 μl aliquot of 10 mM peptide was combined with 56 μl of 20 mM POPC. 24 μl 20 mM SM(egg) and 16 μl 2.5 mM DiI in a small glass vial. The peptide and lipid solutions were prepared in 80% TBA/20% water. The DiI stock was prepared in 92% TBA/8% water. The combined solution was lyophilized and the resultant cake was rehydrated by addition of 0.2 ml of Dulbecco's phosphate buffered saline. The solution was briefly swirled, water bath sonicated (for approx. 15 sec.) and placed in a 50° C. heating block for 20 minutes.
SR-BI interaction studies are done with BHK(SR-BI) cells stably transfected with an inducible human SR-BI gene by means of the GeneSwitch™ System (Invitrogen) (Vickers et al. (2011) Nat. Cell Biol. 13:423-433) . The cells were plated (96-well plate) (8000 cells/well) in growth medium (Dulbecco's modified Eagle medium containing 10% fetal bovine serum) containing 200 μg/ml each of zeocin and hygromycin. After 24 hours incubation, the growth medium was removed and replaced with 0.2% bovine serum albumin in Dulbecco's modified Eagle medium. The medium of cells to be induced for SR-BI expression also contained 10 nM mifepristone, added from a DMSO stock solution. DMSO alone was added to the medium of uninduced cells. The induction medium was removed after 24 hours and replaced with medium containing DiI-labeled PALM (32 μg peptide/ml) or DiI-labeled HDL (19 μg protein/mL) (Kalen Biomedical, Montgomery Village, MD). The test media were prepared by diluting an aliquot of DiI-labeled PALM (Example 10) or the DiI-labeled HDL in 0.2% bovine serum albumin in Dulbecco's modified Eagle medium. The solutions were passed through 0.2 μm pore size, polyethersulfone, sterilization filters before use. The cells were incubated for 4 hours. Next, the cells were washed 3 times with 0.1% albumin in Dulbecco's phosphate buffered saline (with calcium and magnesium). The last wash was replaced with 200 μl/well of t-butanol/water (95%/5%). The covered plate was left to stand at room temp (20-21° C.) for 30 min with occasional shaking. The fluorescence in each well was detected at 520 nm excitation and 580 nm emission with a 550 nm cutoff filter on a […] Gemini fluorescence plate reader (FIG. 9).

[2] = molecular target: human scavenger receptor class B, type 1 (SR-BI) (human) (UniProt Q8WTV0); test: cell-based or functional assay
[3] = Stability of peptide/phospholipid complexes by visual inspection; format: physicochemical; conditions: SM, PC/SM 70/30, SEQ ID No. 25: peptide to phospholipids 1/4
Protocol: Separate stock solutions of peptide and phospholipids were prepared in a solvent mixture composed of 80% tert-butyl alcohol (TBA) and 20% water to obtain separate solutions of 10 mM peptide, 20 mM 1,2-dioleoyl-sn-glycero-3-phosphocholine (DOPC) or 20 mM 1-palmitoyl-2-oleoyl-phosphatidylcholine (POPC) and 20 mM egg SM. […] The solutions were combined in a 1.5 ml glass vial, frozen (−70° C.), and lyophilized at −5 to −10° C. overnight. The resultant lyophilized cakes were rehydrated by addition of Dulbecco's phosphate buffered saline followed by gentle swirling of the contents. Formation of PALM was completed by incubating the PALM solution at 50° C. for 10 minutes. […] The qualities of the PALM preparations were evident in their appearance. A visually clear preparation indicated any nanoparticles that had formed were less than approximately 40 nm diameter, based on the Tyndall effect.

[4] = molecular target: T1, human scavenger receptor class B, type 1 (SR-BI) (human, UniProt Q8WTV0 1-552); test: cell-based or functional assay
T1 sequence (looked up): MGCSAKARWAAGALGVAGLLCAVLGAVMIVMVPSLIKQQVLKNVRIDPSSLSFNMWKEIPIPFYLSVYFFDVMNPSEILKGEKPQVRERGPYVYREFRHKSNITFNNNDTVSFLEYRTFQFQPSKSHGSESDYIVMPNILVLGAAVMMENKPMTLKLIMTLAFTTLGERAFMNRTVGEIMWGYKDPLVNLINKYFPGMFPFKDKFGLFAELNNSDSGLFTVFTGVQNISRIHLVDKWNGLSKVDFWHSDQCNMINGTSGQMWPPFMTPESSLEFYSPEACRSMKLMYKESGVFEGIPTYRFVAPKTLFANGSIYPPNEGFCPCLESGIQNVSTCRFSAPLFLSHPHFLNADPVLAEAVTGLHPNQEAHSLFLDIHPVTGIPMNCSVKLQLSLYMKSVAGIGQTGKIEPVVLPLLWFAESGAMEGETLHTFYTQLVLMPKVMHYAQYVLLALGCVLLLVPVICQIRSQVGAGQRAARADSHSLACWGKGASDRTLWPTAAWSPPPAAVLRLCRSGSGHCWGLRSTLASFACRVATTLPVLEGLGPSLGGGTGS

[5] = 4 hours, PALM prepared with the peptide 32 μg/ml, HDL 19 μg/ml, average (n = 4) ± SEM
[6] = complex of the peptide with DOPC, C16PTX/PL 0
[7] = complex of the peptide with DOPC, C16PTX/PL 0.1
[8] = complex of the peptide with POPC, C16PTX/PL 0
[9] = complex of the peptide with POPC, C16PTX/PL 0.1

## DVFQKL{AIB}ELFNQL{AIB}EKWKQV (DVFQKL[Aib]ELFNQL[Aib]EKWKQV) [SEQ ID NO: 35]
[1]; [5]
  Un-induced DiI Uptake: 0.35 ± 0.01 pmol/µg/mL

## DiI-labeled human HDL (Kalen Biomedical) (from UniProt P02647 25-267)
[2]
  Increase Over Un-induced (DiI uptake, BHK(SR-BI) cells): 561%
  Induced DiI Uptake (pmol/ug/ml), BHK(SR-BI) cells induced for human SR-BI, 4 h: 0.86 pmol/µg/mL

## DV{AIB}QKFLELFNQLLEKWKQV (DV[Aib]QKFLELFNQLLEKWKQV) [SEQ ID NO: 32]
[1]; [5]
  Un-induced DiI Uptake: 0.28 ± 0.02 pmol/µg/mL
[3]; [6]
  Stability of Peptide/Phospholipid Complexes by Visual Inspection: Turbid
[3]; [7]
  Stability of Peptide/Phospholipid Complexes by Visual Inspection: Turbid
[3]; [8]
  Stability of Peptide/Phospholipid Complexes by Visual Inspection: Clear (A visually clear preparation indicated any nanoparticles that had formed were less than approximately 40 nm diameter)
[3]; [9]
  Stability of Peptide/Phospholipid Complexes by Visual Inspection: Turbid

## DVFQKLVELFNQLLEKWKQV [SEQ ID NO: 26]
[1]; [5]
  Un-induced DiI Uptake: 0.49 ± 0.04 pmol/µg/mL
[3]; [8]
  Stability of Peptide/Phospholipid Complexes by Visual Inspection: Clear (A visually clear preparation indicated any nanoparticles that had formed were less than approximately 40 nm diameter)
[3]; [9]
  Stability of Peptide/Phospholipid Complexes by Visual Inspection: Turbid

## HDL: high density lipoprotein, human, labeled with DiI (Kalen Biomedical) [reference compound]
[1]; SR-BI induced (10 nM mifepristone) BHK(SR-BI) cells, 4 hours, PALM prepared with the peptide 32 μg/ml, HDL 19 μg/ml, average (n = 4) ± SEM
  Induced DiI Uptake: 0.86 ± 0.03 pmol/µg/mL
[1]; induced vs un-induced DiI uptake
  Increase Over Un-induced: 561%
[1]; [5]
  Un-induced DiI Uptake: 0.13 ± 0.02 pmol/µg/mL

## DVFQ{AIB}LKELFNQLLEKWKQV (DVFQ[Aib]LKELFNQLLEKWKQV) [SEQ ID NO: 3]
[1]; [5]
  Un-induced DiI Uptake: 0.16 ± 0.01 pmol/µg/mL

## DVFQ{AIB}LKELLNQLLEKFKQV (DVFQ[Aib]LKELLNQLLEKFKQV) [SEQ ID NO: 5]
[1]; [5]
  Un-induced DiI Uptake: 0.54 ± 0.03 pmol/µg/mL

## DV{AIB}QKLFELFNQLLEKWKQV (DV[Aib]QKLFELFNQLLEKWKQV) [SEQ ID NO: 27]
[1]; [5]
  Un-induced DiI Uptake: 0.34 ± 0.01 pmol/µg/mL
[3]; [6]
  Stability of Peptide/Phospholipid Complexes by Visual Inspection: Turbid
[3]; [8]
  Stability of Peptide/Phospholipid Complexes by Visual Inspection: Clear (A visually clear preparation indicated any nanoparticles that had formed were less than approximately 40 nm diameter)
[3]; [9]
  Stability of Peptide/Phospholipid Complexes by Visual Inspection: Turbid

## DVFQKL{AIB}ELFNQLLEKWKQV (DVFQKL[Aib]ELFNQLLEKWKQV) [SEQ ID NO: 25]
[1]; [5]
  Un-induced DiI Uptake: 0.24 ± 0.01 pmol/µg/mL
[3]; [6]
  Stability of Peptide/Phospholipid Complexes by Visual Inspection: Clear (A visually clear preparation indicated any nanoparticles that had formed were less than approximately 40 nm diameter)
[3]; [7]
  Stability of Peptide/Phospholipid Complexes by Visual Inspection: Clear (A visually clear preparation indicated any nanoparticles that had formed were less than approximately 40 nm diameter)
[3]; [8]
  Stability of Peptide/Phospholipid Complexes by Visual Inspection: Clear (A visually clear preparation indicated any nanoparticles that had formed were less than approximately 40 nm diameter)
[3]; [9]
  Stability of Peptide/Phospholipid Complexes by Visual Inspection: Clear (A visually clear preparation indicated any nanoparticles that had formed were less than approximately 40 nm diameter)

B1: DiI-labeled PALM prepared with the peptide of SEQ ID NO: 26 (peptide)
peptide: DVFQKLVELFNQLLEKWKQV
modifications: also: peptide amphiphile lipid micelle with POPC, egg sphingomyelin, DiI
[4]
  Increase Over Un-induced (DiI uptake, BHK(SR-BI) cells): 65%
  Induced DiI Uptake (pmol/ug/ml), BHK(SR-BI) cells induced for human SR-BI, 4 h: 0.81 pmol/µg/mL

B2: DiI-labeled PALM prepared with the peptide of SEQ ID NO: 27 (peptide)
peptide: DV[Aib]QKLFELFNQLLEKWKQV
modifications: also: formulated as DiI-labeled peptide amphiphile lipid micelle with POPC and egg sphingomyelin
[4]
  Increase Over Un-induced (DiI uptake, BHK(SR-BI) cells): 90%
  Induced DiI Uptake (pmol/ug/ml), BHK(SR-BI) cells induced for human SR-BI, 4 h: 0.66 pmol/µg/mL

B3: DiI-labeled PALM prepared with the peptide of SEQ ID NO: 32 (peptide)
peptide: DV[Aib]QKFLELFNQLLEKWKQV
modifications: also: formulated as DiI-labeled peptide amphiphile lipid micelle with POPC and egg sphingomyelin
[4]
  Increase Over Un-induced (DiI uptake, BHK(SR-BI) cells): 221%
  Induced DiI Uptake (pmol/ug/ml), BHK(SR-BI) cells induced for human SR-BI, 4 h: 0.9 pmol/µg/mL

B4: DiI-labeled PALM prepared with the peptide of SEQ ID NO: 35 (peptide)
peptide: DVFQKL[Aib]ELFNQL[Aib]EKWKQV
modifications: also: formulated as DiI-labeled peptide amphiphile lipid micelle with POPC and egg sphingomyelin
[4]
  Increase Over Un-induced (DiI uptake, BHK(SR-BI) cells): 264%
  Induced DiI Uptake (pmol/ug/ml), BHK(SR-BI) cells induced for human SR-BI, 4 h: 1.26 pmol/µg/mL

B5: DiI-labeled PALM prepared with the peptide of SEQ ID NO: 3 (peptide)
peptide: DVFQ[Aib]LKELFNQLLEKWKQV
modifications: also: formulated in a micelle with POPC, egg sphingomyelin and DiI
[4]
  Increase Over Un-induced (DiI uptake, BHK(SR-BI) cells): 88%
  Induced DiI Uptake (pmol/ug/ml), BHK(SR-BI) cells induced for human SR-BI, 4 h: 0.29 pmol/µg/mL

B6: DiI-labeled PALM prepared with the peptide of SEQ ID NO: 5 (peptide)
peptide: DVFQ[Aib]LKELLNQLLEKFKQV
modifications: also: formulated as DiI-labeled peptide amphiphile lipid micelle with POPC and egg sphingomyelin
[4]
  Increase Over Un-induced (DiI uptake, BHK(SR-BI) cells): 73%
  Induced DiI Uptake (pmol/ug/ml), BHK(SR-BI) cells induced for human SR-BI, 4 h: 0.93 pmol/µg/mL

B7: DiI-labeled PALM prepared with the peptide of SEQ ID NO: 25 (peptide)
peptide: DVFQKL[Aib]ELFNQLLEKWKQV
modifications: also: formulated as DiI-labeled peptide amphiphile lipid micelle with POPC and egg sphingomyelin
[4]
  Increase Over Un-induced (DiI uptake, BHK(SR-BI) cells): 245%
  Induced DiI Uptake (pmol/ug/ml), BHK(SR-BI) cells induced for human SR-BI, 4 h: 0.83 pmol/µg/mL
